The test system of series [1] is control peptide KEATSTFTNIT FRGTCOOH
The subject of series [2] is recombinant β3 integrin cytoplasmic tail-GST fusion protein.
For series [3], the system named is β3 integrin cytoplasmic peptide specific for tyrosine-747 (DTANNPLYpKEATSTFT-COOH).
The test system of series [4] is control peptide DTANNPLF KEATSTFT-COOH.
In series [5] the test system is β3 integrin cytoplasmic peptide specific for tyrosine-759 (KEATSTFTNITYpRGT-COOH).

The values below come from patent US20090298769.

Turning to c-Src of HUVEC (endogenous), the “[γ-32P] ATP incorporation, in vitro kinase assay (control peptide, lower incorporation)” value in series [1] and in series [4] was “a dramatic increase in [γ-^32P] ATP incorporation was observed as compared to control peptides devoid of tyrosine motifs” each time. Further, the “[γ-32P] ATP incorporation, in vitro kinase assay” value in series [2] is “the immunoprecipitated c-Src can phosphorylate β3 integrin cytoplasmic domain”; in series [3], “In the presence of Tyr-747/Tyr-759 β3 integrin cytoplasmic peptide, a dramatic increase in [γ-^32P] ATP incorporation was observed as compared to control peptides devoid of tyrosine motifs”; in series [5], “In the presence of Tyr-747/Tyr-759 β3 integrin cytoplasmic peptide, a dramatic increase in [γ-^32P] ATP incorporation was observed as compared to control peptides devoid of tyrosine motifs”.

As for purified, recombinant full-length c-Src, in series [2], the “[γ-32P] ATP incorporation, in vitro kinase assay” value is recorded as “Recombinant purified c-Src also phosphorylated the β3 integrin whereas no phosphorylation was observed without the substrate”.
